Conditions in all cases: both partners purified
In assay [1] the target is T1, ScChc-NTD W-box mutant (F26A, Q155A) (Saccharomyces cerevisiae, UniProt P22137 1-369, F26A | Q155A).
T1 construct: Clathrin heavy chain N-terminal domain, Saccharomyces cerevisiae, residues 1-369, W-box mutant; also called W mutant
T1 sequence (looked up): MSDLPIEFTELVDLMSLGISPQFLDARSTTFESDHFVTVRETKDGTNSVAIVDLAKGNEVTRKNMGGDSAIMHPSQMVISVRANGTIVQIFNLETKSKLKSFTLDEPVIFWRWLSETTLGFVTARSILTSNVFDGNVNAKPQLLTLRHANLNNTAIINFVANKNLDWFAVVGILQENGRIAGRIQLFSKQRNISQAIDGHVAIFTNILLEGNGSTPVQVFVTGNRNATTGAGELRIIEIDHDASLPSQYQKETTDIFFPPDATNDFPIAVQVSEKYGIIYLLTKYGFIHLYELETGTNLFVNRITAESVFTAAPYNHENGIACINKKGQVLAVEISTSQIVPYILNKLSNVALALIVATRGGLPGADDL
Put plainly: nanoDSF thermal shift; ScChc-NTD mutants 10 µM with Ent1 or Ent2 peptide, thermal ramp up to 80 °C; apparent KD from the Tm shift model. For orientation: Differential scanning fluorimetry follows unfolding on heating by fluorescence.

Assay [2] has as its target T2, ScChc-NTD Arrestin and W box mutant (Arr+W) (Saccharomyces cerevisiae, UniProt P22137 1-369, F26A | Q155A | Q195A | I197T | K251E).
T2 construct: Clathrin heavy chain N-terminal domain, Saccharomyces cerevisiae, residues 1-369, Arrestin and W box mutant
T2 sequence (looked up): T1 sequence (looked up) with Q195A, I197T, K251E
The assay is described as above.

For assay [3], the target named is T3, Saccharomyces cerevisiae clathrin heavy chain N-terminal domain (ScChc-NTD, 1-369) (Saccharomyces cerevisiae, UniProt P22137 1-369).
T3 construct: Clathrin heavy chain N-terminal domain, Saccharomyces cerevisiae, residues 1-369; pETM-30 vector with a His-GST tag and a TEV cleavage site; also called WT NTD; source: E. coli BL21 (DE3), purified (Ni-NTA, TEV cleavage, reverse Ni-NTA, SEC)
T3 sequence (looked up): T1 sequence (looked up) with A26F, A155Q
Put plainly: nanoDSF thermal shift; ScChc-NTD 8 µM incubated with eleven peptide concentrations (1:1 dilutions) for 15 min, heated 20-95 °C at 1 °C/min, SEC buffer (50 mM Tris pH 9, 150 mM NaCl, 0.5 mM TCEP); apparent KD from the Tm shift model, one to one binding assumed, global average over all boxes.

Positions count from the first letter of the chain named.

B1: Ent1 CBM peptide (GYTLIDL) (peptide)
peptide: GYTLIDL
notes: also called Ent1 peptide; source: synthetic peptide, bought: NovoProLabs
For B1, the binding result in assay [1] and in assay [2] was “binds” in each case. Besides, the Kd in assay [3] was around 138 µM.

B2: Ent2 CBM peptide (GVSLIDL) (peptide)
peptide: GVSLIDL
notes: also called Ent2 peptide; source: synthetic peptide, bought: NovoProLabs
Regarding B2, the binding result in assay [1] and in assay [2] was “binds” throughout. Besides, the Kd in assay [3] was around 177 µM.

The values are drawn from publication PMC11543927, “Subtleties in Clathrin heavy chain binding boxes provide selectivity among adaptor proteins of budding yeast” (Nature Communications, 2024).
